Data as given in PMC3273814.

System: T1, Ms6564 (Mycobacterium smegmatis mc2 155), ORF:45299f77
T1 sequence: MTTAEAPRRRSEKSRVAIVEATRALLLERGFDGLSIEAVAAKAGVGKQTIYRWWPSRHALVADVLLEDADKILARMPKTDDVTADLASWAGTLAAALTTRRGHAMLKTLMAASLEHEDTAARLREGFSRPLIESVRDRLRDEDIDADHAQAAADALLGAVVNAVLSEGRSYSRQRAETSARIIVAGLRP
Assay: DNase I footprinting

## TTAAATCCGCTGGCCCCGATCACCAGTTTCGTCGCTGTCATAGGCCCTTGCGCTCGTGTCCTCGGGTCATAAACGAGACGGTACGTCTCGTCTTGTGGCAGAGTACGGGGTGTCACTTTTCGTGTAAAGGCCTGCGATGACCACCGCTGAAGCGCCCCGCCGGCGCAGTGAGAAGTCGCGGGTGGCCAT (double strand) [Ms6564p4 (p4-1 / p4-2)]
  binding: binds
